# From the supplement of paper PMC10724198
# How the values were obtained:
# Saccharomyces cerevisiae [1] = experiment: protein stability index of tFT-peptide fusion in deletion strain of DAS1 (PSI (0-1 scale)); higher = more stable (slower turnover)
# Procedure: (§1)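 MPS profiling in S. cerevisiae of two library types built from selected 12-aa C-degron peptides (IN1, IN2, LN1, LN3, VN2, R1-R5, W1-W3, Atg1 and Rpa12 C-termini): saturation mutagenesis libraries and C-terminal +1 capping libraries (13 aa). Each peptide is fused to the C-terminus of a sfGFP-mCherry timer, after a GGGS linker. Cells are FACS-sorted into 8 mCherry/sfGFP bins and sequenced. PSI runs from 0 (unstable) to 1 (stable), measured once in wild type and in the das1Δ or doa10Δ background.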
# Saccharomyces cerevisiae [2] = experiment: protein stability index of tFT-peptide fusion in wild type (PSI (0-1 scale)); higher = more stable (slower turnover); details: genetic background: wild type
# Procedure: as §1
# 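For protein stability index of tFT-peptide fusion in deletion strain of DAS1 in this document: PSI is a weighted mean of each variant's read distribution over the sorted stability bins, computed only for variants having over 10 reads in total.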
# 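For protein stability index of tFT-peptide fusion in wild type in this document: PSI derived as read-weighted mean over the 8 sorting bins, only variants exceeding 10 total reads kept, mCherry placed adjacent to the peptide and sfGFP distal.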
Sequence,protein stability index (Saccharomyces cerevisiae [1]),protein stability index (Saccharomyces cerevisiae [2])
PDLAASFWRVVG,0.708,0.151
ARWRVGRWRGAS,0.688,0.533
KKHKKGQKQKING,0.653,0.293
LVVYLSCVACINK,0.0356,0.0222
PSLAASPWRVVG,0.683,0.519
TLIQPLPVQFLN,0.576,0.102
ARWRVGGWRGAS,0.701,0.557
RLIQPLVVQFLN,0.587,0.045
KKHKPGQKQKIN,0.607,0.143
KKHKKGQKQKEN,0.82,0.57
LKILCQKMNHQN,0.71,0.246
CTSCGYMFRTNN,0.682,0.357
LKILRQVMNHQN,0.663,0.315
FSMRWTFRYWVNR,0.562,0.559
ARWRVGLWDGAS,0.688,0.705
RLIQPLEVQFLN,0.665,0.163
LPVYLSCVACIN,0.19,0.055
QSMRWTFRYWVN,0.691,0.047
VRGAVGGWRLVGH,0.671,0.668
ARPRVGLWRGAS,0.681,0.65
LVVYLSCVACINY,0.0337,0.0212
FSMRWTFEYWVN,0.448,0.0782
PSLADSFWRVVG,0.688,0.586
PDKRRHLIKLLN,0.605,0.115

Sequence,protein stability index (Saccharomyces cerevisiae [1]),protein stability index (Saccharomyces cerevisiae [2])
WLIQPLPVQFLN,0.643,0.0761
DTSCGYKFRTNN,0.68,0.241
ARWAVGLWRGAS,0.71,0.428
VEGAVGGWRLVG,0.685,0.159
LVVYLSCVALIN,0.0501,0.0158
ARWRVGLWRGYS,0.659,0.621
LKVLRQKMNHQN,0.675,0.177
VRGAVGGERLVG,0.698,0.65
PDKRNHLIKLLND,0.664,0.638
LVVYLSCVSCIN,0.0441,0.0143
LKLLRQKMNHQN,0.682,0.208
LTILRQKMNHQN,0.679,0.123
KKHKKGQRQKIN,0.599,0.0819
VRGAVGGWRGVG,0.673,0.602
FAMRWTFRYWVN,0.476,0.0656
FSMRWTCRYWVN,0.515,0.0505
RHIQPLPVQFLN,0.588,0.167
KNHKKGQKQKIN,0.61,0.121
LKILRQKMNHQK,0.682,0.666
PDKRNHLIKLLG,0.614,0.238
PDKRNHLIRLLN,0.614,0.144
LKILRQKMNHQNT,0.692,0.671
KKHKKGQWQKIN,0.556,0.106
LVVYLSCEACIN,0.0235,0.0807

Sequence,protein stability index (Saccharomyces cerevisiae [1]),protein stability index (Saccharomyces cerevisiae [2])
VRGAVGMWRLVG,0.691,0.169
FSMRWQFRYWVN,0.53,0.0795
VRGAVQGWRLVG,0.682,0.157
KKHKKGQKSKIN,0.562,0.548
RLIIPLPVQFLN,0.551,0.018
LVVYLSCVAKIN,0.0401,0.0143
IKHKKGQKQKIN,0.608,0.109
VRGAVGGWRLRG,0.679,0.636
PSLHASFWRVVG,0.684,0.157
FSVRWTFRYWVN,0.419,0.0298
VRGAVGGWFLVG,0.673,0.626
CTSCHYKFRTNN,0.64,0.26
RLIQPLPVQFLW,0.565,0.621
ARWRVGMWRGAS,0.701,0.458
VFGAVGGWRLVG,0.698,0.134
FSMRWTFRYWVNH,0.559,0.106
LVVYTSCVACIN,0.0606,0.0172
CTSCGYKYRTNN,0.674,0.295
LFILRQKMNHQN,0.692,0.126
LVVYLSCVACID,0.0175,0.0162
KKHKKGQKNKIN,0.596,0.096
VRSAVGGWRLVG,0.685,0.141
PSSAASFWRVVG,0.696,0.143
VRGAVGGGRLVG,0.682,0.564

Sequence,protein stability index (Saccharomyces cerevisiae [1]),protein stability index (Saccharomyces cerevisiae [2])
VRGAVGGWRVVG,0.654,0.259
PGKRNHLIKLLN,0.585,0.127
VRGADGGWRLVG,0.685,0.438
VRGDVGGWRLVG,0.679,0.108
KKHKYGQKQKIN,0.613,0.067
PDKRNHLIKVLN,0.577,0.186
LVVGLSCVACIN,0.215,0.159
VRKAVGGWRLVG,0.665,0.18
PDNRNHLIKLLN,0.604,0.171
ATWRVGLWRGAS,0.685,0.487
RLIQPLPVQFLNE,0.676,0.659
LVQYLSCVACIN,0.18,0.0238
LVVYLSCVACIV,0.0299,0.0146
ARWRVGNWRGAS,0.678,0.684
VRGAVGKWRLVG,0.68,0.172
RLPQPLPVQFLN,0.631,0.118
PHLAASFWRVVG,0.698,0.148
RLIQPLPVQLLN,0.577,0.0606
LVVYNSCVACIN,0.406,0.245
VRGAVGGWRLVE,0.663,0.726
LVVCLSCVACIN,0.034,0.0139
DRWRVGLWRGAS,0.657,0.413
LKILRQKMNHQNA,0.681,0.658
CTSCGYKFRTNNE,0.711,0.709

Sequence,protein stability index (Saccharomyces cerevisiae [1]),protein stability index (Saccharomyces cerevisiae [2])
PSLAAKFWRVVG,0.681,0.149
KSMRWTFRYWVN,0.578,0.0597
FSMRWTFRYWVNS,0.542,0.194
CTSCGYKFRCNN,0.695,0.487
FSMRWTPRYWVN,0.59,0.0631
FSDRWTFRYWVN,0.605,0.095
LVVYLSCVACIC,0.0309,0.0144
FSMGWTFRYWVN,0.575,0.0807
RLIQPAPVQFLN,0.612,0.0579
KKHKKGQKQKIT,0.598,0.263
RLIQPLPVQFGN,0.611,0.63
LKILRQKMNHQNP,0.688,0.678
FSMRWTFRGWVN,0.605,0.313
CTSCGYKFRTNNA,0.697,0.698
FKILRQKMNHQN,0.672,0.168
VRMAVGGWRLVG,0.672,0.132
KKHKKGQKQKRN,0.575,0.5
GRGAVGGWRLVG,0.671,0.19
CTSCGYKFRINN,0.721,0.233
LKILAQKMNHQN,0.667,0.229
VRGLVGGWRLVG,0.678,0.154
